Assay results reported in paper PMC9674223, “Voltage-sensor movements in the Eag Kv channel under an applied electric field” (Proceedings of the National Academy of Sciences of the …, 2022).

What was measured:
[1] = biological target: T1, vertebrate calmodulin (CaM) (vertebrate, UniProt P0DP23 1-149); experiment: cryo-EM structure; Eag1-CaM complex purified with Ca2+, reconstituted into 90:5:5 POPC:POPG:cholesterol liposomes with 300 mM KCl; polarized with valinomycin and exchange of the external solution to 300 mM NaCl (a smaller dataset on unpolarized vesicles too); 10 mM Tris pH 8.0; conditions: both partners purified
T1 construct: vertebrate calmodulin, expressed from a separate vector without a tag; source: HEK293S GnTI- cells infected with rEag1 and CaM baculoviruses, co-purified with rEag1 in the presence of Ca2+

[2] = biological target: the molecule itself; experiment: as above

B1: rat Eag1 with residues 773 to 886 truncated (rEag1) (natural protein, UniProt Q63472 1-962, looked up)
chain: MTMAGGRRGLVAPQNTFLENIVRRSNDTNFVLGNAQIVDWPIVYSNDGFCKLSGYHRAEVMQKSSACSFMYGELTDKDTVEKVRQTFENYEMNSFEILMYKKNRTPVWFFVKIAPIRNEQDKVVLFLCTFSDITAFKQPIEDDSCKGWGKFARLTRALTSSRGVLQQLAPSVQKGENVHKHSRLAEVLQLGSDILPQYKQEAPKTPPHIILHYCVFKTTWDWIILILTFYTAILVPYNVSFKTRQNNVAWLVVDSIVDVIFLVDIVLNFHTTFVGPAGEVISDPKLIRMNYLKTWFVIDLLSCLPYDVINAFENVDEGISSLFSSLKVVRLLRLGRVARKLDHYIEYGAAVLVLLVCVFGLAAHWMACIWYSIGDYEIFDEDTKTIRNNSWLYQLALDIGTPYQFNGSGSGKWEGGPSKNSVYISSLYFTMTSLTSVGFGNIAPSTDIEKIFAVAIMMIGSLLYATIFGNVTTIFQQMYANTNRYHEMLNSVRDFLKLYQVPKGLSERVMDYIVSTWSMSRGIDTEKVLQICPKDMRADICVHLNRKVFKEHPAFRLASDGCLRALAMEFQTVHCAPGDLIYHAGESVDSLCFVVSGSLEVIQDDEVVAILGKGDVFGDVFWKEATLAQSCANVRALTYCDLHVIKRDALQKVLEFYTAFSHSFSRNLILTYNLRKRIVFRKISDVKREEEERMKRKNEAPLILPPDHPVRRLFQRFRQQKEARLAAERGGRDLDDLDVEKGNALTDHTSANHSLVKASVVTVRESPATPVSFYPIPEQTLQATVLEVKHELKEDIKALNAKMTSIEKQLSEILRILMSRGSSQSPQDTCEVSRPQSPESDRDIFGAS
notes: rat Eag1 voltage-dependent K+ channel; construct corresponding to rat Eag1 with residues 773 to 886 truncated; Tetrameric channel (C4 symmetric up map); The C-terminal GFP-His6 tag was linked by a preScission protease site and removed; also called Eag channel; Eag Kv channel; not shown: GFP, C-terminal, cleaved; His6, C-terminal, cleaved
B1: binds [1]; binds [2].
